Measurements published in FireProtDB.
Values joined by “and” are separate entries in the source; they are usually repeats but may differ in a detail not shown here. Equal values may be shown once.

B1: Guanyl-specific ribonuclease T1, P00651 (parent)
chain: MMYSKLLTLTTLLLPTALALPSLVERACDYTCGSNCYSSSDVSTAQAAGYQLHEDGETVGSNSYPHKYNNYEGFDFSVSSPYYEWPILSSGDVYSGGSPGADRVVFNENNQLAGVITHTGASGNNFVECT
B2: Triosephosphate isomerase, P00942 (parent)
chain: MARTFFVGGNFKLNGSKQSIKEIVERLNTASIPENVEVVICPPATYLDYSVSLVKKPQVTVGAQNAYLKASGAFTGENSVDQIKDVGAKWVILGHSERRSYFHEDDKFIADKTKFALGQGVGVILCIGETLEEKKAGKTLDVVERQLNAVLEEVKDWTNVVVAYEPVWAIGTGLAATPEDAQDIHASIRKFLASKLGDKAASELRILYGGSANGSNAVTFKDKADVDGFLVGGASLKPEFVDIINSRN
B3: Copper-transporting ATPase 2, P35670 (parent)
chain: MPEQERQITAREGASRKILSKLSLPTRAWEPAMKKSFAFDNVGYEGGLDGLGPSSQVATSTVRILGMTCQSCVKSIEDRISNLKGIISMKVSLEQGSATVKYVPSVVCLQQVCHQIGDMGFEASIAEGKAASWPSRSLPAQEAVVKLRVEGMTCQSCVSSIEGKVRKLQGVVRVKVSLSNQEAVITYQPYLIQPEDLRDHVNDMGFEAAIKSKVAPLSLGPIDIERLQSTNPKRPLSSANQNFNNSETLGHQGSHVVTLQLRIDGMHCKSCVLNIEENIGQLLGVQSIQVSLENKTAQVKYDPSCTSPVALQRAIEALPPGNFKVSLPDGAEGSGTDHRSSSSHSPGSPPRNQVQGTCSTTLIAIAGMTCASCVHSIEGMISQLEGVQQISVSLAEGTATVLYNPSVISPEELRAAIEDMGFEASVVSESCSTNPLGNHSAGNSMVQTTDGTPTSVQEVAPHTGRLPANHAPDILAKSPQSTRAVAPQKCFLQIKGMTCASCVSNIERNLQKEAGVLSVLVALMAGKAEIKYDPEVIQPLEIAQFIQDLGFEAAVMEDYAGSDGNIELTITGMTCASCVHNIESKLTRTNGITYASVALATSKALVKFDPEIIGPRDIIKIIEEIGFHASLAQRNPNAHHLDHKMEIKQWKKSFLCSLVFGIPVMALMIYMLIPSNEPHQSMVLDHNIIPGLSILNLIFFILCTFVQLLGGWYFYVQAYKSLRHRSANMDVLIVLATSIAYVYSLVILVVAVAEKAERSPVTFFDTPPMLFVFIALGRWLEHLAKSKTSEALAKLMSLQATEATVVTLGEDNLIIREEQVPMELVQRGDIVKVVPGGKFPVDGKVLEGNTMADESLITGEAMPVTKKPGSTVIAGSINAHGSVLIKATHVGNDTTLAQIVKLVEEAQMSKAPIQQLADRFSGYFVPFIIIMSTLTLVVWIVIGFIDFGVVQRYFPNPNKHISQTEVIIRFAFQTSITVLCIACPCSLGLATPTAVMVGTGVAAQNGILIKGGKPLEMAHKIKTVMFDKTGTITHGVPRVMRVLLLGDVATLPLRKVLAVVGTAEASSEHPLGVAVTKYCKEELGTETLGYCTDFQAVPGCGIGCKVSNVEGILAHSERPLSAPASHLNEAGSLPAEKDAVPQTFSVLIGNREWLRRNGLTISSDVSDAMTDHEMKGQTAILVAIDGVLCGMIAIADAVKQEAALAVHTLQSMGVDVVLITGDNRKTARAIATQVGINKVFAEVLPSHKVAKVQELQNKGKKVAMVGDGVNDSPALAQADMGVAIGTGTDVAIEAADVVLIRNDLLDVVASIHLSKRTVRRIRINLVLALIYNLVGIPIAAGVFMPIGIVLQPWMGSAAMAASSVSVVLSSLQLKCYKKPDLERYEAQAHGHMKPLTASQVSVHIGMDDRWRDSPRATPWDQVSYVSQVSLSSLTSDKPSRHSAAADDDGDKWSLLLNGRDEEQYI
B4: Lysozyme C, P61626 (parent)
chain: MKALIVLGLVLLSVTVQGKVFERCELARTLKRLGMDGYRGISLANWMCLAKWESGYNTRATNYNAGDRSTDYGIFQINSRYWCNDGKTPGAVNACHLSCSALLQDNIADAVACAKRVVRDPQGIRAWVAWRNRCQNRDVRQYVQGCGV
B5: Thioredoxin, P80579 (parent)
chain: ATMTLTDANFQQAIQGDKPVLVDFWAAWCGPCRMMAPVLEEFAEAHADKVTVAKLNVDENPETTSQFGIMSIPTLILFKGGRPVKQLIGYQPKEQLEAQLADVLQ
B6: Aspartate aminotransferase, P00509 (parent)
chain: MFENITAAPADPILGLADLFRADERPGKINLGIGVYKDETGKTPVLTSVKKAEQYLLENETTKNYLGIDGIPEFGRCTQELLFGKGSALINDKRARTAQTPGGTGALRVAADFLAKNTSVKRVWVSNPSWPNHKSVFNSAGLEVREYAYYDAENHTLDFDALINSLNEAQAGDVVLFHGCCHNPTGIDPTLEQWQTLAQLSVEKGWLPLFDFAYQGFARGLEEDAEGLRAFAAMHKELIVASSYSKNFGLYNERVGACTLVAADSETVDRAFSQMKAAIRANYSNPPAHGASVVATILSNDALRAIWEQELTDMRQRIQRMRQLFVNTLQEKGANRDFSFIIKQNGMFSFSGLTKEQVLRLREEFGVYAVASGRVNVAGMTPDNMAPLCEAIVAVL
B7: L-asparaginase 2, P00805 (parent)
chain: MEFFKKTALAALVMGFSGAALALPNITILATGGTIAGGGDSATKSNYTVGKVGVENLVNAVPQLKDIANVKGEQVVNIGSQDMNDNVWLTLAKKINTDCDKTDGFVITHGTDTMEETAYFLDLTVKCDKPVVMVGAMRPSTSMSADGPFNLYNAVVTAADKASANRGVLVVMNDTVLDGRDVTKTNTTDVATFKSVNYGPLGYIHNGKIDYQRTPARKHTSDTPFDVSKLNELPKVGIVYNYANASDLPAKALVDAGYDGIVSAGVGNGNLYKSVFDTLATAAKTGTAVVRSSRVPTGATTQDAEVDDAKYGFVASGTLNPQKARVLLQLALTQTKDPQQIQQIFNQY
B8: Ribonuclease, P00648 (parent)
chain: MMKMEGIALKKRLSWISVCLLVLVSAAGMLFSTAAKTETSSHKAHTEAQVINTFDGVADYLQTYHKLPDNYITKSEAQALGWVASKGNLADVAPGKSIGGDIFSNREGKLPGKSGRTWREADINYTSGFRNSDRILYSSDWLIYKTTDHYQTFTKIR

Variants of: B1
Conditions: Aspergillus oryzae (strain ATCC 42149 / RIB 40); pH 7; 25 °C; Thermal; CD; MOPS 30 mM; structure 1RN1; whole UniProt chain shown

Row | Variant | ddG of mutation (higher = less stable)
1 | D75H | -1.1 kcal/mol

Same assay, conditions: Aspergillus oryzae (strain ATCC 42149 / RIB 40); pH 7; Thermal; Absorbance; Sodium cacodylate 10 mM; reversible: yes; structure 1RN1; whole UniProt chain shown

Row | Variant | Tm | change of melting temperature, mutant - wild type (higher = more stable)
2 | W85Y | 53.4 °C | -4.2 °C

Same assay, conditions: Aspergillus oryzae (strain ATCC 42149 / RIB 40); pH 7; Thermal; Absorbance; Sodium cacodylate-D2O 100 mM; reversible: yes; structure 1RN1; whole UniProt chain shown

Row | Variant | Tm | change of melting temperature, mutant - wild type (higher = more stable)
3 | W85Y | 65 °C | 20 °C

Same assay, conditions: Aspergillus oryzae (strain ATCC 42149 / RIB 40); pH 7.4; 25 °C; Urea; Fluorescence; Sodium acetate 50 mM; reversible: yes; structure 1RN1; whole UniProt chain shown

Row | Variant | denaturant m value | denaturant midpoint (higher = more stable) | unfolding free energy
4 | A47G | 1.3 kcal/mol/M | 5.5 M | 7.1 kcal/mol

Variants of: B2
Conditions: Saccharomyces cerevisiae (strain ATCC 204508 / S288c); pH 7.4; Thermal; CD; Tris 50 mM; reversible: No; structure 1YPI; whole UniProt chain shown

Row | Variant | change of melting temperature, mutant - wild type (higher = more stable)
5 | C126S | -11.2 °C
6 | C126A | -11.2 °C

Same assay, conditions: Saccharomyces cerevisiae (strain ATCC 204508 / S288c); pH 8.5; Thermal; CD; Tris 50 mM; reversible: No; structure 1YPI; whole UniProt chain shown

Row | Variant | change of melting temperature, mutant - wild type (higher = more stable)
7 | C126S | -13 °C

Variants of: B3
Conditions: Homo sapiens; pH 7; 20 °C; Urea; CD; NaH2PO4 50 mM; transition: 2; reversible: No; structure 2ARF; whole UniProt chain shown

Row | Variant | ddG of mutation (higher = less stable) | denaturant midpoint (higher = more stable) | unfolding free energy
8 | H1069Q | 0.96 kcal/mol | 4.7 M and 4 M | 5.74 kcal/mol and 6.21 kcal/mol

Variants of: B4
Conditions: Homo sapiens; pH 4; 10 °C; GdnHCl; CD; GdnHCl 40 mM; reversible: yes; structure 1LZ1; whole UniProt chain shown

Row | Variant | ddG of mutation (higher = less stable) | denaturant m value | denaturant midpoint (higher = more stable) | unfolding free energy
9 | D85H | 4.54 kcal/mol | 3.2 kcal/mol/M | 3.1 M | 9.44 kcal/mol
10 | I74T | 6.67 kcal/mol | 2.96 kcal/mol/M | 2.7 M | 7.31 kcal/mol

Same assay, conditions: Homo sapiens; pH 2.35; 36.7 °C; Thermal; DSC; Gly-HCl 0.05 M; reversible: yes; structure 1LZ1; whole UniProt chain shown

Row | Variant | unfolding enthalpy (calorimetric) | unfolding enthalpy (van 't Hoff)
11 | I77A | 55.7 kcal/mol | 58.1 kcal/mol

Same assay, conditions: Homo sapiens; pH 2.9; 47.2 °C; Thermal; DSC; Gly-HCl 0.05 M; reversible: yes; structure 1LZ1; whole UniProt chain shown

Row | Variant | unfolding enthalpy (calorimetric) | unfolding enthalpy (van 't Hoff)
12 | I77A | 72.7 kcal/mol | 74.8 kcal/mol

Same assay, conditions: Homo sapiens; pH 5.2; 20 °C; GdnHCl; CD; Sodium acetate 20 mM; reversible: yes; structure 1LZ1; whole UniProt chain shown

Row | Variant | ddG of mutation (higher = less stable) | denaturant m value | denaturant midpoint (higher = more stable) | unfolding free energy
13 | W82C C83A | 2.2 kcal/mol | 3.3 kcal/mol/M | 3.79 M | 12.5 kcal/mol

Same assay, conditions: Homo sapiens; pH 3; 10 °C; GdnHCl; Fluorescence; glycine-HCl 40 mM; reversible: yes; structure 1LZ1; whole UniProt chain shown

Row | Variant | ddG of mutation (higher = less stable) | unfolding free energy
14 | C95A C113A | 5.7 kcal/mol | 6.1 kcal/mol

Same assay, conditions: Homo sapiens; pH 4; 10 °C; GdnHCl; CD; glycine-HCl 40 mM; reversible: yes; structure 1LZ1; whole UniProt chain shown

Row | Variant | ddG of mutation (higher = less stable) | unfolding free energy
15 | C95A C113A | 5.8 kcal/mol | 8.2 kcal/mol

Variants of: B5
Conditions: Alicyclobacillus acidocaldarius subsp. acidocaldarius; pH 7; GdHCl; CD; Sodium phosphate 10 mM; reversible: yes; structure 1QUW; whole UniProt chain shown

Row | Variant | denaturant midpoint (higher = more stable)
16 | D102X | 2 M
17 | K18G R82E | 2.4 M
18 | R82E | 2.7 M

Same assay, conditions: Alicyclobacillus acidocaldarius subsp. acidocaldarius; pH 7; Urea; CD; Sodium phosphate 10 mM; reversible: yes; structure 1QUW; whole UniProt chain shown

Row | Variant | denaturant midpoint (higher = more stable)
19 | D102X | 4 M
20 | K18G R82E | 4.6 M
21 | R82E | 5.5 M
22 | K18G | 5.2 M

Same assay, conditions: Alicyclobacillus acidocaldarius subsp. acidocaldarius; pH 7; Thermal; CD; Sodium phosphate 10 mM; reversible: yes; structure 1QUW; whole UniProt chain shown

Row | Variant | Tm
23 | K18G R82E | 73.1 °C
24 | R82E | 81.5 °C and 81.4 °C
25 | K18G | 78.1 °C and 78.8 °C

Variants of: B6
Conditions: Escherichia coli (strain K12); pH 7.5; 25 °C; Urea; enzyme activity; potassium phosphate 20 mM; structure 1AMQ; whole UniProt chain shown

Row | Variant | unfolding free energy
26 | C180F | 8.4 kcal/mol
27 | C180W | 6.1 kcal/mol
28 | C180Y | 7.7 kcal/mol
29 | C180S | 8.1 kcal/mol

Variants of: B7
Conditions: Escherichia coli (strain K12); pH 7.4; 25 °C; Urea; Fluorescence; Tris-HCl 50 mM; structure 3ECA; whole UniProt chain shown

Row | Variant | unfolding free energy
30 | S144A | 12.4 kcal/mol
31 | T141A | 11.5 kcal/mol
32 | T34A | 11.5 kcal/mol
33 | T34S | 11.2 kcal/mol

Variants of: B8
Conditions: Bacillus amyloliquefaciens; pH 6.3; 25 °C; Urea; Fluorescence; MES 1 M; structure 1BNI; whole UniProt chain shown

Row | Variant | ddG of mutation (higher = less stable) | unfolding free energy
34 | K74A | -0.53 kcal/mol | 9.43 kcal/mol

Same assay, conditions: Bacillus amyloliquefaciens; pH 6.3; 25 °C; Urea; Fluorescence; MES 1.00 M; NaCl 613 mM; reversible: yes; structure 1BNI; whole UniProt chain shown

Row | Variant | ddG of mutation (higher = less stable)
35 | Y60A Y64A | 4.64 kcal/mol
36 | Y64A | 2.26 kcal/mol

Same assay, conditions: Bacillus amyloliquefaciens; pH 6.15; 25 °C; Urea; Fluorescence; MES 19.3 mM; reversible: yes; structure 1BNI; whole UniProt chain shown

Row | Variant | ddG of mutation (higher = less stable) | denaturant midpoint (higher = more stable) | unfolding free energy
37 | F54L | 4.1 kcal/mol | 2.42 M | 6.4 kcal/mol

Same assay, conditions: Bacillus amyloliquefaciens; pH 6.3; 25 °C; Thermal; Fluorescence; MES 50 mM; structure 1BNI; whole UniProt chain shown

Row | Variant | ddG of mutation (higher = less stable) | unfolding free energy
38 | D122N | 5 kcal/mol | 5.2 kcal/mol

Same assay, conditions: Bacillus amyloliquefaciens; pH 6.3; 25 °C; Urea; Fluorescence; MES 50 mM; reversible: yes; structure 1BNI; whole UniProt chain shown

Row | Variant | ddG of mutation (higher = less stable)
39 | I135A | 4.46 kcal/mol
40 | I143V | 0.98 kcal/mol
41 | I143A | 3.52 kcal/mol

Same assay, conditions: Bacillus amyloliquefaciens; pH 6.3; 25 °C; Urea; Fluorescence; MES 19.3 mM; reversible: yes; structure 1BNI; whole UniProt chain shown

Row | Variant | ddG of mutation (higher = less stable) | denaturant midpoint (higher = more stable) | unfolding free energy
42 | I143A | 4 kcal/mol | 2.24 M | 6.5 kcal/mol
